Reference: US20170204176A1 (MacroGenics, published 2017)

Experiments:
His-tagged human DR5 = target: T1, His-tagged human DR5 (human, UniProt O14763 56-210, limits assumed); assay: Biacore (SPR); DR5 mAb 1×CD3 mAb 2 diabody with His-tagged human DR5
T1 construct: whole precursor entry named; also called His-tagged DR5; not shown: His tag

[1] = target: T2, His-tagged cynomolgus monkey DR5 (cynomolgus monkey (Macaca fascicularis)); assay: Biacore (SPR); DR5 mAb 1×CD3 mAb 2 diabody with His-tagged cynomolgus monkey DR5
T2 construct: also called His-tagged DR5
Procedure: (§1) Bi-specific DR5×CD3 diabodies were incubated with His-tagged DR5 and the kinetics of binding was determined via Biacore analysis.

[2] = target: T2, His-tagged cynomolgus monkey DR5; assay: Biacore (SPR); DR5 mAb 3×CD3 mAb 2 diabody with His-tagged cynomolgus monkey DR5
Procedure: as §1

histidine tagged TRAIL [3] = target: T3, histidine tagged TRAIL (UniProt P50591 95-281, limits assumed); assay: ELISA; biotinylated DR5 mAb 2 on 1 µg/mL TRAIL-His coat
T3 construct: also called TRAIL-His; TRAIL ligand; not shown: histidine tag

[4] = target: T2, His-tagged cynomolgus monkey DR5; assay: Biacore (SPR); DR5 mAb 2×CD3 mAb 2 diabody with His-tagged cynomolgus monkey DR5
Procedure: as §1

[5] = target: T2, His-tagged cynomolgus monkey DR5; assay: Biacore (SPR); DR5 mAb 4×CD3 mAb 2 diabody with His-tagged cynomolgus monkey DR5
Procedure: as §1

histidine tagged TRAIL [6] = target: T3, histidine tagged TRAIL; assay: ELISA; biotinylated DR5 mAb 1 on 1 µg/mL TRAIL-His coat
human DR5 = human DR5 (human, UniProt O14763 56-210, limits assumed); assay: titration with fluorescence readout (y axis: Log MFI); the text does not describe the assay format
human DR5, sequence (O14763 other isoform, or with tags, fused parts or gaps limits assumed): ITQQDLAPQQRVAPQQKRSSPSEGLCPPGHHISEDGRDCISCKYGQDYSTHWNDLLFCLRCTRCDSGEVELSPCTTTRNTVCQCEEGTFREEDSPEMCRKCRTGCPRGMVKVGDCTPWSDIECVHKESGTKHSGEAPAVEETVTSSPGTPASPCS

T1 sequence (O14763 other isoform, or with tags, fused parts or gaps limits assumed): as above

B1: DR5 mAb 1×CD3 mAb 2 diabody (bispecific antibody)
chain 1: DIVLTQSPASLAVSLGQRATISCRASKSVSSSGYSYMHWYQQKPGQPPKVLIFLSSNLDSGVPARFSGSGSGTDFTLNIHPVEDGDAATYYCQHSRDLPPTFGGGTKLEIKGGGSGGGGEVQLVESGGGLVQPGGSLRLSCAASGFTFSTYAMNWVRQAPGKGLEWVGRIRSKYNNYATYYADSVKGRFTISRDDSKNSLYLQMNSLKTEDTAVYYCVRHGNFGNSYVSWFAYWGQGTLVTVSSASTKGEVAACEKEVAALEKEVAALEKEVAALEK
chain 2: QAVVTQEPSLTVSPGGTVTLTCRSSTGAVTTSNYANWVQQKPGQAPRGLIGGTNKRAPWTPARFSGSLLGGKAALTITGAQAEDEADYYCALWYSNLWVFGGGTKLTVLGGGGSGGGGEVKFLESGGGLVQPGGSLKLSCVASGFDFSRYWMSWVRQAPGKGLEWIGEINPDSNTINYTPSLKDKFIISRDNAKNTLYLQMTKVRSEDTALYYCTRRAYYGNPAWFAYWGQGTLVTVSAASTKGKVAACKEKVAALKEKVAALKEKVAALKE
notes: Two-chain bi-specific DR5×CD3 diabody
His-tagged human DR5
  Kd: 0.14 nM
[1]
  Kd: 32.5 nM

B2: DR5 mAb 3×CD3 mAb 2 diabody (bispecific antibody)
chain 1: SELTQDPAVSVALGQTVRITCSGDSLRSYYASWYQQKPGQAPVLVIYGANNRPSGIPDRFSGSSSGNTASLTITGAQAEDEADYYCNSADSSGNHVVFGGGTKLTVLGGGGSGGGGEVQLVESGGGLVQPGGSLRLSCAASGFTFSTYAMNWVRQAPGKGLEWVGRIRSKYNNYATYYADSVKGRFTISRDDSKNSLYLQMNSLKTEDTAVYYCVRHGNFGNSYVSWFAYWGQGTLVTVSSASTKGEVAACEKEVAALEKEVAALEKEVAALEK
chain 2: QAVVTQEPSLTVSPGGTVTLTCRSSTGAVTTSNYANWVQQKPGQAPRGLIGGTNKRAPWTPARFSGSLLGGKAALTITGAQAEDEADYYCALWYSNLWVFGGGTKLTVLGGGGSGGGGEVQLVQSGGGVERPGGSLRLSCAASGFTFDDYAMSWVRQAPGKGLEWVSGINWQGGSTGYADSVKGRVTISRDNAKNSLYLQMNSLRAEDTAVYYCAKILGAGRGWYFDYWGKGTTVTVSSASTKGKVAACKEKVAALKEKVAALKEKVAALKE
notes: Two-chain bi-specific DR5×CD3 diabody with the VL and VH of drozitumab (DR5 mAb 3); also called drozitumab variable domains
[2]
  Kd: 13.3 nM

B3: DR5 mAb 2 (antibody, V domains shown)
VH: KVQLQQSGAELVKPGASVKLSCKASGYTFTEYILHWVKQKSGQGLEWIGWFYPGNNNIKYNEKFKDKATLTADKSSSTVYMELSRLTSEDSAVYFCARHEQGPGYFDYWGQGTTLTVSS
VL: DIVMTQSHKFMSTSVGDRVSITCKASQDVNTAVAWYQQKPGQSPKLLIYWASTRHTGVPDRFTGSGSGTDYTLTIKSVQAEDLTLYYCQQHYITPWTFGGGTKLEIK
notes: Murine anti-human DR5 monoclonal antibody; also called anti-human DR5 monoclonal antibody DR5 mAb 2; DR mAb 2
Histidine tagged TRAIL [3]
  binding result: no binding (tested: 2 µg/mL)

B4: DR5 mAb 2×CD3 mAb 2 diabody (bispecific antibody)
chain 1: DIVMTQSHKFMSTSVGDRVSITCKASQDVNTAVAWYQQKPGQSPKLLIYWASTRHTGVPDRFTGSGSGTDYTLTIKSVQAEDLTLYYCQQHYITPWTFGGGTKLEIKGGGSGGGGEVQLVESGGGLVQPGGSLRLSCAASGFTFSTYAMNWVRQAPGKGLEWVGRIRSKYNNYATYYADSVKGRFTISRDDSKNSLYLQMNSLKTEDTAVYYCVRHGNFGNSYVSWFAYWGQGTLVTVSSASTKGEVAACEKEVAALEKEVAALEKEVAALEK
chain 2: QAVVTQEPSLTVSPGGTVTLTCRSSTGAVTTSNYANWVQQKPGQAPRGLIGGTNKRAPWTPARFSGSLLGGKAALTITGAQAEDEADYYCALWYSNLWVFGGGTKLTVLGGGGSGGGGKVQLQQSGAELVKPGASVKLSCKASGYTFTEYILHWVKQKSGQGLEWIGWFYPGNNNIKYNEKFKDKATLTADKSSSTVYMELSRLTSEDSAVYFCARHEQGPGYFDYWGQGTTLTVSSASTKGKVAACKEKVAALKEKVAALKEKVAALKE
notes: as for B1
[4]
  Kd: 0.42 nM

B5: DR5 mAb 4×CD3 mAb 2 diabody (bispecific antibody)
chain 1: EIVLTQSPGTLSLSPGERATLSCRASQGISRSYLAWYQQKPGQAPSLLIYGASSRATGIPDRFSGSGSGTDFTLTISRLEPEDFAVYYCQQFGSSPWTFGQGTKVEIKGGGSGGGGEVQLVESGGGLVQPGGSLRLSCAASGFTFSTYAMNWVRQAPGKGLEWVGRIRSKYNNYATYYADSVKGRFTISRDDSKNSLYLQMNSLKTEDTAVYYCVRHGNFGNSYVSWFAYWGQGTLVTVSSASTKGEVAACEKEVAALEKEVAALEKEVAALEK
chain 2: QAVVTQEPSLTVSPGGTVTLTCRSSTGAVTTSNYANWVQQKPGQAPRGLIGGTNKRAPWTPARFSGSLLGGKAALTITGAQAEDEADYYCALWYSNLWVFGGGTKLTVLGGGGSGGGGQVQLQESGPGLVKPSQTLSLTCTVSGGSISSGDYFWSWIRQLPGKGLEWIGHIHNSGTTYYNPSLKSRVTISVDTSKKQFSLRLSSVTAADTAVYYCARDRGGDYYYGMDVWGQGTTVTVSSASTKGKVAACKEKVAALKEKVAALKEKVAALKE
notes: Two-chain bi-specific DR5×CD3 diabody with the VL and VH of conatumumab (DR5 mAb 4); also called conatumumab variable domains
[5]
  Kd: 16.4 nM

B6: DR5 mAb 1 (antibody, V domains shown)
VH: EVKFLESGGGLVQPGGSLKLSCVASGFDFSRYWMSWVRQAPGKGLEWIGEINPDSNTINYTPSLKDKFIISRDNAKNTLYLQMTKVRSEDTALYYCTRRAYYGNPAWFAYWGQGTLVTVSS
VL: DIVLTQSPASLAVSLGQRATISCRASKSVSSSGYSYMHWYQQKPGQPPKVLIFLSSNLDSGVPARFSGSGSGTDFTLNIHPVEDGDAATYYCQHSRDLPPTFGGGTKLEIK
notes: Murine anti-human DR5 monoclonal antibody; also called anti-human DR5 monoclonal antibody DR5 mAb 1
Histidine tagged TRAIL [6]
  binding result: no binding (tested: 2 µg/mL)
Human DR5
  EC50 (read off the curve): ~1 nM
